According to patent US20260242478A1 (published 2026):
Where no end group is shown, it is not given here.

B1: Phage-1875 (peptide)
peptide: FVPWCIPAWMCAEN
modifications: cysteine pairing not given here; also: displayed on phage as pIII fusion, pIII sequence and linker not given here
B2: Phage-1861 (peptide)
peptide: AVKLCIPEWMCVGQ
B3: Phage-1862 (peptide)
peptide: LDKWCIPEWMCFDY
B4: Phage-1868 (peptide)
peptide: MEKLCKPAWMCSML
B5: Phage-1871 (peptide)
peptide: HVKWCIPAWMCEAS
B6: Phage-1867 (peptide)
peptide: WENRCTPAWMCKGF
B7: Phage-1870 (peptide)
peptide: EFIWCRPAWMCMDV
B8: Phage-1874 (peptide)
peptide: SPKWCTPEWMCSHL
B9: Phage-1872 (peptide)
peptide: VMKWCIPEWMCQHT
B10: Phage-1863 (peptide)
peptide: DFRWCIPEWMCTGY
B11: Phage-1866 (peptide)
peptide: WEHWCRPAWMCESL
B12: Phage-1873 (peptide)
peptide: VEHWCIPAWMCEWM
B13: Phage-1865 (peptide)
peptide: EITRCIPAWMCDFW
B14: Phage-1864 (peptide)
peptide: IMKWCIPEWMCYFF
B15: Phage-1869 (peptide)
peptide: SIKMCIPQWMCVMQ

Biological target: T1, Anti-PSMA Fab (SEQ ID NOs: 19, 20)
T1 construct: Biotinylated PSMA Fab captured on neutravidin coated plates in the phage ELISA; also called 006 PSMA Fab
Experiment: phage binding ELISA on captured anti-PSMA Fab; competitor: PSMA antigen pre-incubated in the wells
Description: (§1) Clonal phage were harvested as crude supernatants and screened via standard ELISAs. […] Prior to the addition of clonal phage. wells were incubated with blocking buffer and PSMA antigen or blocking buffer alone. Without washing or aspirating, clonal phage supernatants were then added to the wells and incubated for a short time. Wells were then washed followed by detection of bound phage using a horse radish conjugated anti-M13 antibody.

Point of comparison: B5, “Anti-PSMA Fab signal in the presence of PSMA” value 0.0972. Against it:
- B1 — higher, 0.111
- B2 — lower, 0.0676
- B3 — lower, 0.0678
- B4 — lower, 0.0627
- B6 — lower, 0.0837
- B7 — lower, 0.0681
- B8 — higher, 0.127
- B9 — higher, 0.199
- B10 — higher, 0.11
- B11 — higher, 0.134
- B12 — higher, 0.12
- B13 — lower, 0.081
- B14 — higher, 0.1
- B15 — higher, 0.179

Biological target: T1, Anti-PSMA Fab (SEQ ID NOs: 19, 20)
Experiment: phage binding ELISA; biotinylated anti-PSMA Fab on neutravidin plate, bound phage detected with anti-M13-HRP
Description: as §1

Point of comparison: B4, “Anti-PSMA Fab (SEQ ID NOs: 19, 20) signal” value 2.11. Against it:
- B1 — lower, 2.08
- B2 — higher, 2.15
- B3 — higher, 2.14
- B5 — lower, 2.1
- B6 — higher, 2.12
- B7 — the same, 2.11
- B8 — lower, 2.09
- B9 — lower, 2.09
- B10 — higher, 2.14
- B11 — higher, 2.12
- B12 — lower, 2.09
- B13 — higher, 2.13
- B14 — higher, 2.14
- B15 — the same, 2.11
